Results as given in the supplement of paper PMC10126150.
± gives the standard deviation of the averaged measurements.

tested on: ATP; test: switch fluorescence ratio, 500 uM ATP over buffer (Cy3 cluster intensity, sum of 5 cycles each) (fold (ratio)); higher = stronger signal-on switching upon ATP binding; sequences stand for … in TCGTCGGCAGCGTCAGATGTGTATAAGAGACAGTTTTTTTTTTTTTTTTTTTTTTTTT…TC; details: aptamer strand: ATP DNA aptamer (quencher-CACCTGGGGGAGTATTGCGGAGGAAGG + anchor), 100 nM annealed; ATP concentration: 500 uM
Procedure, shortened: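 For every switch-domain sequence, the fluorescence ratio is the mean of per-cluster values, each being summed target-cycle Cy3 intensity over summed buffer-cycle Cy3 intensity. Clusters outside 100-1000 RFU were excluded. On a modified Illumina MiSeq flow-cell, the Cy3-labelled switching-strand clusters were annealed to 100 nM quencher-labelled ATP aptamer, imaged in selection buffer and then after 15 min with 500 uM ATP at 22 °C. Five such cycles were run, with NaOH stripping and re-annealing between them.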
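Also: ATP exposure 15 min at 22 °C before imaging.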

Sequence | switch fluorescence ratio
AAAAAAACA | 1.2 ± 0.11
AAAAAAATAG | 1.03 ± 0.014
AAAAAACTAT | 1.02 ± 0.018
AAAAAACTTT | 1.05 ± 0.027
AAAAAAGCAG | 1.024 ± 0.0014
AAAAAAGGAT | 1.024 ± 0.0086
AAAAAAGTTT | 1.02 ± 0.033
AAAAAATCGC | 1.09 ± 0.16
AAAAAATTGT | 0.999 ± 0.019
AAAAACAACT | 1.024 ± 0.0076
AAAAACACTT | 1.04 ± 0.022
AAAAACAGGG | 1.16 ± 0.097
AAAAACCTCG | 1.05 ± 0.013
AAAAACGCTT | 1.01 ± 0.045
AAAAACGGTG | 1.05 ± 0.084
AAAAACGTCT | 1.1 ± 0.016
AAAAAGAATG | 0.973 ± 0.03
AAAAAGATGA | 0.9626 ± 0.0028
AAAAAGGGCG | 0.989 ± 0.02
AAAAAGGGTA | 0.988 ± 0.05
AAAAAGGGTG | 1 ± 0.045
AAAAAGGTTC | 0.991 ± 0.017
AAAAAGTCTC | 0.9891 ± 0.0092
AAAAAGTGGG | 0.992 ± 0.039
AAAAAGTTTT | 0.985 ± 0.058

Sequence | switch fluorescence ratio
AAAAATAATT | 0.983 ± 0.028
AAAAATCACT | 1.04 ± 0.039
AAAAATCTCT | 1.02 ± 0.033
AAAAATCTGC | 1.03 ± 0.12
AAAAATGGCT | 1.04 ± 0.091
AAAAATGTCA | 0.979 ± 0.045
AAAAATTAAA | 1.002 ± 0.0018
AAAAATTAAG | 1.03 ± 0.029
AAAACATCGC | 1.015 ± 0.0029
AAAACATTCG | 1.16 ± 0.12
AAAACATTTT | 1.03 ± 0.049
AAAACCAGCG | 1.03 ± 0.047
AAAACCGGAT | 1.11 ± 0.18
AAAACGAATT | 1.01 ± 0.044
AAAACGAGTG | 1.02 ± 0.023
AAAACGCAGG | 1.02 ± 0.053
AAAACTTGAA | 1.07 ± 0.086
AAAAGACCCG | 1.07 ± 0.044
AAAAGAGCGC | 1.08 ± 0.072
AAAAGCGATC | 1.14 ± 0.038
AAAAGCGTGG | 1 ± 0.019
AAAAGGAGAC | 1.01 ± 0.028
AAAAGGATAG | 0.954 ± 0.017
AAAAGGATGG | 0.979 ± 0.021
AAAAGGCATA | 1.03 ± 0.046

Sequence | switch fluorescence ratio
AAAAGGCCGG | 1.05 ± 0.14
AAAAGGCGTG | 1.01 ± 0.021
AAAAGGGAGT | 0.972 ± 0.013
AAAAGGGGCG | 1 ± 0.019
AAAAGGGTAG | 1.01 ± 0.018
AAAAGGTCGT | 0.999 ± 0.019
AAAAGGTGAA | 1.04 ± 0.089
AAAAGGTGG | 0.983 ± 0.011
AAAAGGTGTA | 0.99 ± 0.0095
AAAAGGTTTT | 1 ± 0.033
AAAAGTATGG | 1 ± 0.015
AAAAGTGGGT | 0.9942 ± 0.0081
AAAAGTGTAT | 0.98 ± 0.03
AAAAGTTTGC | 1.02 ± 0.056
AAAAGTTTTT | 0.997 ± 0.025
AAAATAATCT | 0.9793 ± 0.004
AAAATATGG | 0.997 ± 0.031
AAAATATGTT | 1 ± 0.023
AAAATCAGAG | 0.97 ± 0.024
AAAATCGTCT | 1.08 ± 0.086
AAAATGATAG | 1.06 ± 0.072
AAAATGGCTT | 0.988 ± 0.034
AAAATGGGCT | 0.996 ± 0.038
AAAATGGTTG | 1.04 ± 0.032
AAAATGTGAC | 1.039 ± 0.007

Sequence | switch fluorescence ratio
AAAATGTTTC | 1.02 ± 0.02
AAAATTGCAG | 0.997 ± 0.012
AAAATTGTTG | 0.988 ± 0.049
AAAATTTAAA | 1 ± 0.051
AAAATTTCGC | 1.01 ± 0.018
AAAATTTGGG | 1.02 ± 0.025
AAACACGTTG | 1.018 ± 0.0094
AAACCAGGTA | 1.18 ± 0.048
AAACCCAAAG | 1.02 ± 0.045
AAACCGGGCA | 1.22 ± 0.22
AAACGAGGTC | 1.01 ± 0.032
AAACGATTTA | 1.018 ± 0.0055
AAACGCAGGG | 1.03 ± 0.029
AAACGCGGAC | 3.45 ± 0.49
AAACGCTGCT | 1.02 ± 0.062
AAACGGACGG | 1.24 ± 0.029
AAACGGCTAA | 1.02 ± 0.039
AAACGGGGCG | 0.9719 ± 0.0047
AAACGGGTAG | 1.07 ± 0.1
AAACGTGGTG | 1 ± 0.038
AAACTATAGA | 1.01 ± 0.054
AAACTATGTG | 1.02 ± 0.037
AAACTCATGA | 0.983 ± 0.02
AAACTGACGG | 1.37 ± 0.016
AAACTTAATG | 1.05 ± 0.061
